Test results as given in US20220162310A1 (GREEN CROSS, published 2022).
Where two headings read alike, the source gives them in different places.

T1: TIGIT on thaw-and-use TIGIT effector cells (TIGIT/CD155 blockade bioassay kit, Promega J2305) (UniProt Q495A1 22-244, limits assumed)
T1 sequence (looked up): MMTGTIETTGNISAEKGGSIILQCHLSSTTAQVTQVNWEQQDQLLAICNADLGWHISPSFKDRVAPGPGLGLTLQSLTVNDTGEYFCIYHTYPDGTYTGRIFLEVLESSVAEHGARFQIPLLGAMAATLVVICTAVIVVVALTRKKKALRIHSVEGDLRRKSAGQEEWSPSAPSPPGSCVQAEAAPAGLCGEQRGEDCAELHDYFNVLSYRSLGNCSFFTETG

T2: human TIGIT-Fc antigen (human, UniProt Q495A1 22-141)
T2 construct: not shown: Fc part
T2 chain: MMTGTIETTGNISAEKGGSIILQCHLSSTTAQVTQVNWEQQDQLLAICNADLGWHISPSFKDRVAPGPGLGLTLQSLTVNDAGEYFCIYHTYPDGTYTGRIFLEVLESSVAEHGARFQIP

T3: TIGIT on the TIGIT-overexpressing Jurkat cell line (Jurkat-TIGIT) (Homo sapiens (Human), UniProt Q495A1 22-244)
T3 construct: Jurkat E6.1 cells transfected with 'TIGIT cDNA'; also called TIGIT expressed on the cell surface
T3 sequence: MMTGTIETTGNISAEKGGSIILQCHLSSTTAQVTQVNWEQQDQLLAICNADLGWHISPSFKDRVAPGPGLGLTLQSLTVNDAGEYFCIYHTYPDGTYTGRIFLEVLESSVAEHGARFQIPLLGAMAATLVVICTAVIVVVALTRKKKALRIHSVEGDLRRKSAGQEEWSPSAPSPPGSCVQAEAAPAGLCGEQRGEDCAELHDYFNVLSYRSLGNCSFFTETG

T4: mouse TIGIT on transfected HEK293 cells (mouse, UniProt P86176 29-249)
T4 construct: whole, on cells; GFP-expressing cells were gated; also called TIGIT of mice
T4 sequence (looked up): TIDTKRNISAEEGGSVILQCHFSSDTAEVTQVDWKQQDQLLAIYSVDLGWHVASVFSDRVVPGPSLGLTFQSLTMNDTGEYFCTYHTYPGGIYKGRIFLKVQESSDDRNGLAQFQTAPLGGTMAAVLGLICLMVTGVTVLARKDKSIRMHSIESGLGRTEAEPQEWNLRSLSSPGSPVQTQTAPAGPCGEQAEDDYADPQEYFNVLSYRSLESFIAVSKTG

T5: human TIGIT-His antigen (human, UniProt Q495A1 22-141)
T5 construct: not shown: His tag
T5 chain: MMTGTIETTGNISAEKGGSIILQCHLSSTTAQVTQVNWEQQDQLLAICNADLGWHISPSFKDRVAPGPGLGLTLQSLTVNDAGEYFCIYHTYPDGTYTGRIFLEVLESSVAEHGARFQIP


Legend:
[1] = molecular target: T1, TIGIT on thaw-and-use TIGIT effector …; test: cell-based or functional assay
[2] = molecular target: T2, human TIGIT-Fc antigen; test: ELISA, IgG titrated on plate-coated human TIGIT-Fc
Procedure: (§1) 50 μl of the human TIGIT-Fc antigen was added at a concentration of 3 μg/ml to an ELISA plate, incubated at 4° C. overnight, and then blocked with 1% BSA in PBS at room temperature for 2 hours. […] The result was washed 3 times with PBST (0.05% Tween 20 in PBS), and 50 μl of anti-His-HRP was diluted 1/1000 in PBS and then reacted at room temperature for 1 hour. The result was washed 3 times with PBST (0.05% Tween 20 in PBS), and 50 μl of a TMB solution was added thereto. The result was allowed to react at room temperature for 5 minutes, 50 μl of a TMB stop solution was added thereto, and the absorbance was measured at 450 nm in an ELISA leader.

[3] = molecular target: T3, TIGIT on the TIGIT-overexpressing …; test: flow cytometry on Jurkat-TIGIT cells, antibody 25 to 0.00032 ug/ml, PE goat anti-human Fab'2, MFI
Procedure: The cells were resuspended in FACS buffer so that the number of cells was 3×10⁶ cells/ml, and 100 μl of the suspension was added to each well of a U-bottom 96-well plate. Then, the cells and culture solution of each well were recovered and centrifuged at 1,500 rpm, and then the supernatant was discarded. […] This series of processes was repeated twice. Phycoerythrin (hereinafter, referred to as “PE”)-conjugated goat anti-human Fab′2 (Sigma; Cat. #P8047) was diluted in FACS buffer at a volume ratio of 1:500, 100 μl thereof was added to each well, and the reaction was allowed to proceed in the dark at 4° C. for 30 minutes. The cells reacted with PE were recovered, resuspended in FACS buffer, and centrifuged at 1,500 rpm, the supernatant was discarded, and the residue was washed. This series of processes was repeated twice. […] The cells reacted with the fixation buffer were recovered, resuspended in FACS buffer, and centrifuged at 1,500 rpm, the supernatant was discarded, and the residue was washed. This series of processes was repeated twice. The washed cells were resuspended in 200 μl of FACS buffer, and then the median fluorescence intensity (MFI) of PE with which the cells were labeled was compared using a FACS LSR-Fortessa instrument. All FACS analysis was performed using FlowJo software.

[4] = molecular target: T3, TIGIT on the TIGIT-overexpressing …; test: competition in flow cytometry: Jurkat-TIGIT cells preloaded with PVR-Fc, then antibody; PVR left on the cells detected with anti-PVR-PE, MFI falls with the antibody concentration; the sheet calls the half-maximal value EC50
Procedure: The TIGIT-overexpressing cell line (Jurkat-TIGIT) was resuspended in DPBS supplemented with 2% (v/v) FBS (hereinafter, FACS buffer), centrifuged at 1,500 rpm, and resuspended in FACS buffer so that the number of cells was 3×10⁶ cells/ml, and 100 μl of the suspension was added to each well of a U-bottom 96-well plate. Then, the cells and culture solution of each well were recovered and centrifuged at 1,500 rpm, and then the supernatant was discarded.
This series of processes was repeated twice. […] This series of processes was repeated twice. […] This series of processes was repeated twice. […] The cells reacted with the fixation buffer were recovered, resuspended in FACS buffer, and centrifuged at 1,500 rpm, the supernatant was discarded, and the residue was washed. This series of processes was repeated twice. The washed cells were resuspended in 200 μl of FACS buffer. Then, the median fluorescence intensity (MFI) of PE with which the cells were labeled was compared using a FACS LSR-Fortessa instrument. All FACS analysis was performed using FlowJo software.

[5] = molecular target: T2, human TIGIT-Fc antigen; test: ELISA, IgG titrated on plate-coated human TIGIT-Fc
Procedure: as §1

[6] = molecular target: T4, mouse TIGIT on transfected HEK293 cells; test: flow cytometry on HEK293 cells transfected with mouse TIGIT
Procedure: The result was washed once with PBS, and then the cells were resuspended in FACS buffer to a concentration of 5×10⁵ cells/100 μl. 1 μl of a human Fc block solution was added to each sample and reacted at 4° C. for 10 minutes. […] The result was centrifuged in 200 μl of FACS buffer at 1,200 rpm for 5 minutes to remove the supernatant. The cells were resuspended in 300 μl of fixation buffer. The cells expressing GFP were screened using a FACS LSR-Fortessa instrument, and TIGIT candidate antibodies were identified using a PE fluorescence channel and analyzed using FlowJo software.

[7] = molecular target: T5, human TIGIT-His antigen; test: SPR (Biacore), antibody (1G8 IgG4) captured on an anti-protein A CM5 chip, TIGIT-HIS as analyte in 1/2 serial dilution, contact 120 s, dissociation 600 s
Procedure: (§2) 10 μg/ml of anti-protein A was prepared by diluting the same in an acetate 4.0 buffer. 100 nM NHS, 400 mM EDC and 1 M ethanolamine were prepared. The sensor chip used herein was a CM5. The contact time was set at 300s (5 min), the flow rate was set at 5 μg/ml, and the immobilization level was set at 2,500 RU. After performing running, whether the RU reached the target level was monitored in the system control window.
(§3) When running was completed, ka, kd, and KD were obtained by fitting using evaluation software.

[8] = molecular target: T5, human TIGIT-His antigen; test: Octet (BLI), human TIGIT-HIS on penta-His sensor, antibody in solution
Procedure: A 5 μg/ml of human TIGIT-HIS was prepared by diluting the same in a 1×KB buffer. Anti-human TIGIT antibodies were prepared through ½ serial dilution with 1×KB buffer from a starting concentration of 100 nM.

[9] = molecular target: T1, TIGIT on thaw-and-use TIGIT effector …; test: cell-based or functional assay; remark: listed apart in the source
[10] = molecular target: T5, human TIGIT-His antigen; test: SPR (Biacore), antibody captured on an anti-protein A CM5 chip, TIGIT-HIS as analyte in 1/2 serial dilution, contact 120 s, dissociation 600 s
Procedure: as §2, §3

[11] = molecular target: T5, human TIGIT-His antigen; test: SPR (Biacore), antibody (WIN-1B6 IgG4) captured on an anti-protein A CM5 chip, TIGIT-HIS as analyte in 1/2 serial dilution, contact 120 s, dissociation 600 s
Procedure: as §2, §3

| Binder | EC50 of T-cell activation (luminescence, TIGIT/CD155 blockade bioassay with TIGIT effector cells and CD155 aAPC/CHO-K1 cells) [1] | EC50 [2] | EC50 [3] | EC50 [4] | EC50 [5] | binding result [6] | Kd [7] | koff [7] | kon [7] | Kd [8] | koff [8] | kon [8] | EC50 of bioluminescence (RLU), TIGIT/CD155 blockade bioassay: TIGIT effector cells with CD155 aAPC/CHO-K1 cells [9] | Kd [10] | koff [10] | kon [10] | Kd [11] | koff [11] | kon [11] |
| --- | --- | --- | --- | --- | --- | --- | --- | --- | --- | --- | --- | --- | --- | --- | --- | --- | --- | --- | --- |
| 1G8 (IgG-type anti-TIGIT antibody) (antibody, V domains shown, section 4.2 is headed 'Conversion to IgG4-Type Anti-TIGIT Antibodies'; also called TIGIT candidate antibody (1G8)) VH: EVQLVQSGAEVKKPGASVKVSCKASGYTFTSYYMHWVRQAPGQGLEWMGIINPSGGSTSYAQKFQGRVTMTRDTSTSTVYMELSSLRSEDTAVYYCASRSGSGWFGALDYWGQGTLVTVSS VL: not shown | 2.1 nM | ~1 nM | 0.017 µg/mL | 0.093 µg/mL | 1.63 nM | no binding (tested: 1 µg/5×10^5 cells) | 0.59 nM | 0.001 s⁻¹ | 1.78e+06 M⁻¹ s⁻¹ | 0.224 nM | 9.32e-05 s⁻¹ | 415000 M⁻¹ s⁻¹ |  |  |  |  |  |  |  |
| reference antibody (anti-TIGIT) (antibody, V domains shown) VH: EVQLQQSGPGLVKPSQTLSLTCAISGDSVSSNSAAWNWIRQSPSRGLEWLGKTYYRFKWYSDYAVSVKGRITINPDTSKNQFSLQLNSVTPEDTAVFYCTRESTTYDLLAGPFDYWGQGTLVTVSS VL: not shown |  |  |  |  |  |  |  |  |  |  |  |  | 6.1 nM | 0.375 nM | 0.000233 s⁻¹ | 622000 M⁻¹ s⁻¹ |  |  |  |
| WIN_1B6 (IgG-type anti-TIGIT antibody) (antibody, V domains shown, section 4.2 is headed 'Conversion to IgG4-Type Anti-TIGIT Antibodies') VH: QVQLVQSGAEVKKPGASVKVSCKASGYTFTSYGISWVRQAPGQGLEWMGWISAYNGNTNYAQKLQGRVTMTTDTSTSTAYMELRSLRSDDTAVYYCARAGWEQQLGFDYWGQGTLVTVSS VL: AIQLTQSPSSLSASVGDRVTISCRASQTIRSYLNWYQQKPGKAPKLLIYAASSLQSGVPLRFSGSGSGTDFTLTISSLQPEDFATYYCQQSYSTLPLTFGGGTKVEIKR |  |  | 0.016 µg/mL | 0.068 µg/mL | 0.86 nM | no binding (tested: 1 µg/5×10^5 cells) |  |  |  | 0.443 nM | 0.000206 s⁻¹ | 465000 M⁻¹ s⁻¹ | 11.8 nM |  |  |  | 21.4 nM | 0.0245 s⁻¹ | 1.15e+06 M⁻¹ s⁻¹ |
| WIN_1D2 (IgG-type anti-TIGIT antibody) (antibody, V domains shown, section 4.2 is headed 'Conversion to IgG4-Type Anti-TIGIT Antibodies') VH: QVQLVQSGAEVKKPGASVKVSCKASGYTFTSYGISWVRQAPGQGLEWMGWISAYNGNTNYAQKLQGRVTMTTDTSTSTAYMELRSLRSDDTAVYYCARAGWEQQLGFDYWGQGTLVTVSS VL: AIQLTQSPSSLSASVGDRVTITCRASQSISSYLNWYQQKPGKAPKLLIYAASSLQSGVPSRFSGSGSGTDFTLTISSLQPEDFATYYCQQSYSTLAITFGQGTRLEIKR |  | ~1 nM | 0.017 µg/mL | 0.071 µg/mL | 1.75 nM | no binding (tested: 1 µg/5×10^5 cells) |  |  |  | 0.571 nM | 0.000278 s⁻¹ | 488000 M⁻¹ s⁻¹ | 27.3 nM |  |  |  |  |  |  |
| 1E8 (IgG-type anti-TIGIT antibody) (antibody, V domains shown, section 4.2 is headed 'Conversion to IgG4-Type Anti-TIGIT Antibodies') VH: QVQLVQSGTEVKKPGASVKVSCKASGYTFSSYAITWVRQAPGQGLEWMGWISAYNGNTNYAQKLQGRVTMTTDTSTSTAYMELRSLRSDDTAVYYCARVDFWSGYNYFDYWGQGTLVTVSS VL: DIQMTQSPSSLSASVGDRVTITCRASQGISNYLAWYQQKPGKVPKVLIYAASTLQSGVPSRFSGSGSGTDFTLTISSLQPEDVATYYCQKSNSAPLTFGGGTKVEIKR |  | ~1 nM | 0.021 µg/mL | 0.102 µg/mL | 1.73 nM | no binding (tested: 1 µg/5×10^5 cells) |  |  |  | 0.937 nM | 0.000528 s⁻¹ | 563000 M⁻¹ s⁻¹ | 19.1 nM |  |  |  |  |  |  |
| 1F10 (IgG-type anti-TIGIT antibody) (antibody, V domains shown, section 4.2 is headed 'Conversion to IgG4-Type Anti-TIGIT Antibodies') VH: EVQLVESGGGLVKPGGSLRISCAASGFTFSNYNMIWVRQAPGKGLEWVSSISSSASYIYYADSVKGRFTISRDNAKNSLYLQMNSLRAEDTAVYYCARDEGSRDSWNNGPYYYSGMDVWGQGTTVTVSS VL: AIQMTQSPSSLSASVGDRVTITCRASQSISRYLNWYQHKPGKAPKLLIYGASSLQSGVPSRFRGSGSGTDFTLTISSLQPEDFATYYCQQSYTTPGAFTFGGGTKVEIKR |  |  | 0.08 µg/mL | 0.38 µg/mL | 5.35 nM | no binding (tested: 1 µg/5×10^5 cells) |  |  |  | 1.32 nM | 0.000232 s⁻¹ | 176000 M⁻¹ s⁻¹ | 35.7 nM |  |  |  |  |  |  |
